Assay [1] deals with T1, α4β1 (R&D Systems #5668-A4) (UniProt P13612 34-977; P05556 21-728).
T1 construct: bought; printed as αβ1; detected with mouse anti-human CD49d antibody 9F10; also called αβ1; A4B1
Put plainly: α4β1-VCAM competition ELISA. The procedure: The solution was removed by shaking and then blocked with 250 ul of 1% BSA in 1×PBS per well. The wells were then incubated at room temperature for 1 hr with shaking. Each well was then washed once with wash buffer (50 mM Tris-HCl pH7.6, 100 mM NaCL, 1 mM MnCl₂ or MgCl₂, 0.05% Tween-20). 25 ul of serial dilutions of peptides starting at 200 μM in assay buffer (Assay buffer: 50 mM Tris-HCl pH7.6, 100 mM NaCl, 1 mM MnCl₂ or MgCl₂, 0.05% Tween-20) was added to each well. […] The final peptide and αβ1 concentrations were 100 μM and 60 nM, respectively. The plates were then incubated at 37° C. for 2 hr. The solution was then removed by shaking and each well was washed three times with wash buffer. 50 ul of 9F10 antibody at 4 ug/ml (purified mouse anti-human CD49d, BD Bioscience Cat#555502) was then added to each well, and the plate was incubated at room temperature for 1 hr with shaking. The solution was again removed by shaking, and each well was washed three times with wash buffer. 50 ul of peroxidase-conjugated AffiniPure Goat anti-mouse IgG (Jackson immune research cat #115-035-003) diluted in 1:5000 in assay buffer was added to each well. The plate was incubated at room temperature for 30 min with shaking. Each well was then washed 3 times with wash buffer. […] The reaction was stepped with 2N H₂SO₄ and absorbance was read at 450 nm.
For orientation: In an ELISA, binding on a coated surface is turned into a signal by an enzyme label.

The target in assay [2] is T2, rh integrin α4β7 (R&D Systems #5397-A30) (human, UniProt P13612 34-977; P26010 20-723).
T2 construct: bought; coated on a nickel coated plate at 800 ng/well; also called A4B7
The assay is described as follows: α4β7-MAdCAM competition ELISA. The procedure: A nickel coated plate (Pierce #15442) was coated with rh integrin α4β7 (R&D Systems #5397-A30) at 800 ng/well and incubated at room temperature with shaking for 1 hr. The solution was then removed by shaking and blocked with assay buffer (50 mM Tris-HCl pH7.6, 150 mM NaCl, 1 mM MnCl₂ or MgCl₂, 0.05% Tween-20 and 0.5% BSA) at 250 ul/well. The plate was then incubated at room temperature for 1 hr. Each well was washed 3 times with wash buffer (50 mM Tris-HCl pH7.6, 100 mM NaCl, 1 mM MnCl₂ or MgCl₂, 0.05% Tween-20). To each well was added 25 ul of a serial dilution (3-fold dilutions in assay buffer) of peptides starting at 20 μM. 25 ul of recombinant human MAdCAM-1 (R&D Systems #6056-MC) was then added to each well at a fixed concentration 20 nM. The final starting peptide concentration was 10 μM, and the final MAdCAM-1 concentration was 10 nM. The plates were then incubated at room temperature for 1 hr to reach binding equilibrium. The wells were then washed three times with wash buffer. 50 ul of mouse anti-human IgG1-HRP (Invitrogen #A10648) diluted in 1:2000 in assay buffer was then added to each well. The wells were incubated at room temperature for 45 min with shaking. The wells were then washed 3 times with wash buffer. 100 ul of TMB were then added to each well and closely observe during development time. The reaction was stopped with 2N H₂SO₄ and absorbance was read at 450 nm.

Usually IC50 stands for the point on the concentration scale where inhibition reaches its midpoint.

T2 sequence (P13612 34-977 limits assumed, chain 1 of 2): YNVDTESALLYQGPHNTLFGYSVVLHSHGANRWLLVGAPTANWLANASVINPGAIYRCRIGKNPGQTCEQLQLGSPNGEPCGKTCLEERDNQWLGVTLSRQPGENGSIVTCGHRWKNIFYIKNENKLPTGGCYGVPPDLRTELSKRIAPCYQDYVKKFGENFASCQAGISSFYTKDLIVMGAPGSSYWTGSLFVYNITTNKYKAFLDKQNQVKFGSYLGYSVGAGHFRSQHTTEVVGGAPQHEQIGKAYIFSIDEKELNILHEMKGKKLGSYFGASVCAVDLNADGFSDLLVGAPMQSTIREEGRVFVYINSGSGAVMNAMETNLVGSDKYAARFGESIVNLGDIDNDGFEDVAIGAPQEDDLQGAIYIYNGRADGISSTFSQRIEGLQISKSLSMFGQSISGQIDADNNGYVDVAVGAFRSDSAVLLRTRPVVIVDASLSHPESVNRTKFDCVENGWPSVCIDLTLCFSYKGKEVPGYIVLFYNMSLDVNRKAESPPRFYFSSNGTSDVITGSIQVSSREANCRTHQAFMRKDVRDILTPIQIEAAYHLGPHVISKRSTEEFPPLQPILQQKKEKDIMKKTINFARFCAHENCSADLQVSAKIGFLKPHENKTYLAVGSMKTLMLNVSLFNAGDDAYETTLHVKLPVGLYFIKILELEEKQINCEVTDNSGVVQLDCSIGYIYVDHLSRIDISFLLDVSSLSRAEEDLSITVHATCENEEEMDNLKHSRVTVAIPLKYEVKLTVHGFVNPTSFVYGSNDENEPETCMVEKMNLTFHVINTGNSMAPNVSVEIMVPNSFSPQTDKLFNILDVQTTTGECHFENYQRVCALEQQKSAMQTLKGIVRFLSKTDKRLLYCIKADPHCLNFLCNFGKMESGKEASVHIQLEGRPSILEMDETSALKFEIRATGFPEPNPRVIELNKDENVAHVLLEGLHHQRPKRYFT
T2 sequence (P26010 20-723 limits assumed, chain 2 of 2): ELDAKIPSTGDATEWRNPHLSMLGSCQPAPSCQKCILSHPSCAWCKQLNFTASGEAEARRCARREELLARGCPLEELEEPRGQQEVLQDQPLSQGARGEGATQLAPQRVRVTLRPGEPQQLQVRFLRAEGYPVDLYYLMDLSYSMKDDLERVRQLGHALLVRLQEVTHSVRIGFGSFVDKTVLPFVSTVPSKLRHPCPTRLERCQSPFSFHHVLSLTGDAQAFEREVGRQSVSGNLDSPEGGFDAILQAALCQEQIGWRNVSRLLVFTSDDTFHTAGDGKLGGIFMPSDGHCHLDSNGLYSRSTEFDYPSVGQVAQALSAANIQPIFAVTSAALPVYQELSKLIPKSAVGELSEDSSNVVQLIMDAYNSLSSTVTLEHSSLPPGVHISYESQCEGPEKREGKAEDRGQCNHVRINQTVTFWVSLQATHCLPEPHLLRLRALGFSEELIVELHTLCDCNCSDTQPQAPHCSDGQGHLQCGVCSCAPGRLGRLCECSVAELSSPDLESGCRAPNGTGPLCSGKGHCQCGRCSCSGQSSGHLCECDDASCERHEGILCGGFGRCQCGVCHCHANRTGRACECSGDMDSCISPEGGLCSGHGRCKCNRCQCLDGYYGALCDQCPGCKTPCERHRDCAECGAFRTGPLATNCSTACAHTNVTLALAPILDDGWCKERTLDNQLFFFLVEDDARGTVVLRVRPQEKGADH
T1 sequence (P13612 34-977 limits assumed, chain 1 of 2): as the sequence (P13612 34-977 limits assumed, chain 1 of 2) above
T1 sequence (P05556 21-728 limits assumed, chain 2 of 2): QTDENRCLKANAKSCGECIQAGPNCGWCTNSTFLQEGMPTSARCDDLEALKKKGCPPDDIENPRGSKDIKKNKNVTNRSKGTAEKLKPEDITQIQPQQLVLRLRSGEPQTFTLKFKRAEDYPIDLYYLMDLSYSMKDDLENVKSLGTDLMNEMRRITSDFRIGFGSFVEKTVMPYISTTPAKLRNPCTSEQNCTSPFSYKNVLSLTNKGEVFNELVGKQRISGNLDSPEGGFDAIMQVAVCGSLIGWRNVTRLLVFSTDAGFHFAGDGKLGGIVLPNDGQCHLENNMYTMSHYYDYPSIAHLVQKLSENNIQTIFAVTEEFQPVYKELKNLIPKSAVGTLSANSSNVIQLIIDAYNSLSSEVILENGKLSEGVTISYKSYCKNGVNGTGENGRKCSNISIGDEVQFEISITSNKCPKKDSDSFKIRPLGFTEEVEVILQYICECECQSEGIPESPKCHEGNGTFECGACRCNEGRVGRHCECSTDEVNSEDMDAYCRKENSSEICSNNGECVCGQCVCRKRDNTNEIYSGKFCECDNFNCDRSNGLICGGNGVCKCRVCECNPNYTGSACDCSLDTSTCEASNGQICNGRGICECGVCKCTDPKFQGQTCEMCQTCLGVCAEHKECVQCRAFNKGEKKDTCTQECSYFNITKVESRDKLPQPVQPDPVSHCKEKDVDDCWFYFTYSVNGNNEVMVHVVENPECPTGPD

B1: SEQ ID NO 385 (peptide)
peptide: Ac-CRSDTLCGE-NH2
modifications: also: cyclised, mode not given here
notes: also called control peptide
In the case of B1, the 50% inhibitory concentration (IC50) was 2.02 µM in assay [1] and 0.097 µM in assay [2].
